System: MS2 coat protein
Experiment: apparent KD of MS2 coat protein; designed switch direction (-1 OFF switch, 1 ON switch): -1; higher = weaker reporter binding
Summary of the method: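 The buffer was Tris-HCl pH 7.5 with KCl, MgCl2, BSA, DTT, tRNA and Tween-20. In it, SNAP-549-labelled MS2 coat protein was titrated in doubling steps from 0.7 or 1.5 nM to 3 µM over chip-bound RNA switches transcribed by stalled E. coli RNA polymerase on Illumina chips. Apparent KD is the per-design median over clusters of curve fits to normalised fluorescence.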

[1] = Eterna round: R95, input ligand: microRNA oligo, concentration not stated
[2] = input ligand: microRNA oligo, concentration not stated

| Sequence | apparent KD of MS2 coat protein (input ligand: FMN 200 uM) | apparent KD of MS2 coat protein (input ligand: none) | apparent KD of MS2 coat protein [2] | also measured |
| --- | --- | --- | --- | --- |
| UACCAGGUUCAGGAUAUGCCCUCGAAGAGAGGCGCAGAAGGGAACACAUGAGGAUCACCCAUGUCAGCCGCUUC [Eternabot (Original) Solution 45] (Eterna round: R97, puzzle: Exclusion 6) | 26.6 nM | 17.1 nM |  |  |
| UACGAGUUAGGAUAUGCAUUGGGCUCGCUUUCCUUCGAUAAACUUGAGGAUCACCCAAGUAGAAGGAACUUGUA [Mod 35 - Jieux - Exclusion 2] (Eterna round: R97, puzzle: Exclusion 2) | 42.3 nM | 16.4 nM |  |  |
| UACUUCUGAGGAUAUACAUGAGGAUCACCCAUGUUGAUACCGACCUAAAGUCCAUUACGUAGAAGGCAGCAGUG [Eternabot (L1) Solution 91] (Eterna round: R97, puzzle: Exclusion 3) | 35.4 nM | 23.6 nM |  |  |
| UAGAAGUUCAACGAGUGAGACAUGAGGAUCACCCAUGUGGUGGUAGGGAACAAGCUUUUUGCACGUACUUAUGAGGA [JR_SV3TOV1_Sub005] (puzzle: Sensor v3, turn-off variant 1) |  |  |  | apparent KD of MS2 coat protein (Eterna round: R95, input ligand: FMN 200 uM): 368 nM; apparent KD of MS2 coat protein [1]: 269 nM; apparent KD of MS2 coat protein (Eterna round: R95, input ligand: none): 414 nM |
| UAGCAGCGAGGAUAUACAGACGGGUCCAGUACGUGUCUUGGACUUGAGGAUCACCCAAGUAGAAGGCGCCACAG [salish99_ex2_r4_604] (Eterna round: R97, puzzle: Exclusion 2) | 41.3 nM | 40 nM |  |  |
| UAGCAUUGCCAAAGGUAGUGCAUUACAUGAGGAUCACCCAUGUAGGAUAUGGUAGGCUUUGCUUACCAGAAGGACAUGAUAAUU [Mat - Exclusion NG 3 - Mod of JL - D15] (Eterna round: R96, puzzle: Exclusion NG 3) | 112 nM | 43.1 nM | 29.6 nM |  |
| UAGCGACCAUACAUGAGGAUCACCCAUGUGAAUGCCCACCGCGAGGAUAUCGAGUCCACUCGGGCCGAGAAGGCGCGACCUCAA [Eternabot solution 43] (Eterna round: R96, puzzle: Exclusion NG 3) | 34.8 nM | 35.5 nM | 16.1 nM |  |
| UAGUGAGCGUGAGGAAUAUACAUGAGGAUCACCCAUGUUUGCUAAUAUAUUGCUCGUCUUAUAACAACAAUUAACUG [Mod-hoo-honey#abc] (Eterna round: R97, puzzle: Sensor, turn-off variant 1) | 27.5 nM | 20.9 nM |  |  |
| UAGUGGCAAGGAUAUACAGUGGAGAGGAUUGCAAGAGGUGGACAUGAGGAUCACCCAUGUAGAAGGUGCAGAGA [JR_Exclu2_Sub023] (puzzle: Exclusion 2) |  |  |  | apparent KD of MS2 coat protein [1]: 203 nM |
| UAGUUACAUGAGGAUCACCCAUGUGAGGAUAUGAGUCAGUCACGGUGACGUGGCUGACUCAGAAGGCACAAUGG [Mat - Exclusion 1 - JL Mod - D45] (Eterna round: R97, puzzle: Exclusion 1) | 77.4 nM | 256 nM |  |  |
| UAUAAGCUAGGAUAUACUGGCACACAACUCAUAAAUCCACGACAUGAGGAUCACCCAUGUAGAAGGAGCAAAUA [EX2 A.27] (Eterna round: R97, puzzle: Exclusion 2) | 18.8 nM | 14.4 nM |  |  |
| UAUAUAUAGUAAGGAUAUGUAAUUAAUUUAUAAACAGAAGGUACUGACAUGAGGAUCACCCAUGUUUUAGUGUGGGCAUGUAGA [JMF's solution 35] (Eterna round: R96, puzzle: Exclusion NG 1) |  |  | 71.6 nM |  |
| UAUAUAUAGUAAGGAUAUGUAAUUAUUUAAUAAACAGAAGGUACUGACAUGAGGAUCACCCAUGUUUUAGUGUGGGCAUGUAGA [JMF's solution 41] (Eterna round: R96, puzzle: Exclusion NG 1) |  |  | 69.4 nM |  |
| UAUAUAUAGUAAGGAUAUGUAUAUAUUUGAUAAACAGAAGGUACUGACAUGAGGAUCACCCAUGUUUUAGUGUGGGCAUGUAGA [JMF's solution 64] (Eterna round: R96, puzzle: Exclusion NG 1) |  |  | 48.4 nM |  |
| UAUAUAUAGUAAGGAUAUGUAUUAAGUUUAUAAACAGAAGGUACUGACAUGAGGAUCACCCAUGUUUUAGUGUGGGCAUGUAGA [JMF's solution 76] (Eterna round: R96, puzzle: Exclusion NG 1) | 122 nM | 78.6 nM | 52.6 nM |  |
| UAUAUAUAGUAAGGAUAUGUAUUAAUCUUAUAAACAGAAGGUACUGACAUGAGGAUCACCCAUGUUUUAGUGUGGGCAUGUAGA [JMF's solution 79] (Eterna round: R96, puzzle: Exclusion NG 1) |  |  | 54.8 nM |  |

| Sequence | apparent KD of MS2 coat protein (input ligand: FMN 200 uM) | apparent KD of MS2 coat protein (input ligand: none) | apparent KD of MS2 coat protein [2] | also measured |
| --- | --- | --- | --- | --- |
| UAUAUAUAGUAAGGAUAUGUAUUAAUUCUAUAAACAGAAGGUACUGACAUGAGGAUCACCCAUGUUUUAGUGUGGGCAUGUAGA [JMF's solution 82] (Eterna round: R96, puzzle: Exclusion NG 1) |  |  | 41.3 nM |  |
| UAUAUAUAGUAAGGAUAUGUAUUAAUUUCAUAAACAGAAGGUACUGACAUGAGGAUCACCCAUGUUUUAGUGUGGGCAUGUAGA [JMF's solution 85] (Eterna round: R96, puzzle: Exclusion NG 1) | 88.2 nM | 81.2 nM | 54.2 nM |  |
| UAUAUAUAGUAAGGAUAUGUAUUAAUUUUGUAAACAGAAGGUACUGACAUGAGGAUCACCCAUGUUUUAGUGUGGGCAUGUAGA [JMF's solution 87] (Eterna round: R96, puzzle: Exclusion NG 1) |  |  | 111 nM |  |
| UAUAUAUAGUAAGGAUAUGUAUUCAUUUUAUAAACAGAAGGUACUGACAUGAGGAUCACCCAUGUUUUAGUGUGGGCAUGUAGA [JMF's solution 10] (Eterna round: R96, puzzle: Exclusion NG 1) |  |  | 64.1 nM |  |
| UAUAUAUAGUAAGGAUAUGUAUUUAUUUGAUAAACAGAAGGUACUGACAUGAGGAUCACCCAUGUUUUAGUGUGGGCAUGUAGA [JMF's solution 20] (Eterna round: R96, puzzle: Exclusion NG 1) |  |  | 69.9 nM |  |
| UAUAUAUAGUAAGGAUAUGUAUUUAUUUUACAAACAGAAGGUACUGACAUGAGGAUCACCCAUGUUUUAGUGUGGGCAUGUAGA [JMF's solution 24] (Eterna round: R96, puzzle: Exclusion NG 1) |  |  | 48.8 nM |  |
| UAUAUAUAGUAAGGAUAUGUAUUUCUUUUAUAAACAGAAGGUACUGACAUGAGGAUCACCCAUGUUUUAGUGUGGGCAUGUAGA [JMF's solution 12] (Eterna round: R96, puzzle: Exclusion NG 1) |  |  | 63.1 nM |  |
| UAUAUGUCAGGAUAUCGAUUGGAAUGGAAUUUAGUUUUGGUUGAGAAGGGACAUGAGGAUCACCCAUGUUUUUC [EX4 #62] (Eterna round: R97, puzzle: Exclusion 4) | 76.7 nM | 32.1 nM |  |  |
| UAUCCACAUGAGGAUCACCCAUGUGAGGAUAUGUCCAUAUUCGGCAAAUCGGAUAUGGACAGAAGGCACACCGG [JR_Exclusion1_Sub011] (Eterna round: R96, puzzle: Exclusion 1) | 114 nM | 35.2 nM | 28.5 nM |  |
| UAUCCACAUGAGGAUCACCCAUGUGAGGAUAUGUCCAUAUUCGGCAAAUCGGAUAUGGACAGAAGGCACACCGG [JR_Exclusion1_Sub011] (puzzle: Exclusion 1) |  |  |  | apparent KD of MS2 coat protein [1]: 35.4 nM |
| UAUCCGACAGGAUAUACAUGAGGAUCACCCAUGUACCCACUGUAUGUAACCUCAAACUGUAGAAGGGUUGAUAU [Eternabot (L1) Solution 18] (Eterna round: R97, puzzle: Exclusion 3) | 21.2 nM | 28.6 nM |  |  |
| UAUCGCAAGCGAAGAUCCCACAUGAGGAUCACCCAUGUGCUCGUCUUAUAAGGUACUGUGACGAUAGUCACGGUACC [Mat - Sensor, turn-off var - Eli Mod - D77] (Eterna round: R97, puzzle: Sensor, turn-off variant 1) | 33.6 nM | 24.9 nM |  |  |
| UAUCGGGACUGAGGAUAUUCGUUCGAACACGAAGAAGAAGGUAGUGUCAGGGACAUGAGGAUCACCCAUGUGAUCUCAGUCCUA [JL ViennaUCT Erinle mod 2] (Eterna round: R96, puzzle: Exclusion NG 1) | 130 nM | 100 nM | 67.9 nM |  |
| UAUCUAUGAGGAUAUCAUAGUAGUUACAUGAGGAUCACCCAUGUCAUGACAGAACUGGGAUGAGAAGGCAUUCGUU [Eternabot (L2) Solution 73] (Eterna round: R97, puzzle: Exclusion 5) | 291 nM | 447 nM |  |  |
| UAUGAGUCAGGAUAUUAGUAGUGUGUGGAUACAUAUAUUGCUGAGAAGGGACAUGAGGAUCACCCAUGUAUAAG [JR_Ex4_Sub056] (Eterna round: R97, puzzle: Exclusion 4) | 65.3 nM | 26.1 nM |  |  |
| UAUGAUUUAGGAUAUUGUACUGCUGACAUGAGGAUCACCCAUGUAUGCUAACUCGGCCGUCGAGAAGGAAAUUAUG [BotMod 28 - Jieux - Exclusion 5] (Eterna round: R97, puzzle: Exclusion 5) | 26.1 nM | 52.6 nM |  |  |
